From patent US20230002480A1

Tests used:
Assay in all cases: cell-based or functional assay
[1] = target: HIV-1 Env of pseudovirus 620345.c01 (HIV-1)
[2] = target: HIV-1 Env of pseudovirus ZM53M.PB12 (HIV-1)
[3] = target: HIV-1 Env of pseudovirus HIV-0013095-2.11 (HIV-1)
[4] = target: HIV-1 Env of pseudovirus T278-50 (HIV-1)
[5] = target: HIV-1 Env of pseudovirus CNE53 (HIV-1)
[6] = target: HIV-1 Env of pseudovirus 1056_10_TA11_1826 (HIV-1)
[7] = target: HIV-1 Env of pseudovirus 211-9 (HIV-1)
[8] = target: HIV-1 Env of pseudovirus 191084 B7-19 (HIV-1)
[9] = target: HIV-1 Env of pseudovirus ZM135M.PL10a (HIV-1)
[10] = target: HIV-1 Env of pseudovirus 928-28 (HIV-1)
[11] = target: HIV-1 Env of pseudovirus 6041.v3.c23 (HIV-1)
[12] = target: HIV-1 Env of pseudovirus Q23.17 (HIV-1)
[13] = target: HIV-1 Env of pseudovirus 9004SS_A3_4 (HIV-1)
[14] = target: HIV-1 Env of pseudovirus HIV-16055-2.3 (HIV-1)
[15] = target: HIV-1 Env of pseudovirus 1012_11_TC21_3257 (HIV-1)
[16] = target: HIV-1 Env of pseudovirus T250-4 (HIV-1)
[17] = target: HIV-1 Env of pseudovirus 235-47 (HIV-1)
[18] = target: HIV-1 Env of pseudovirus 249M B10 (HIV-1)
[19] = target: HIV-1 Env of pseudovirus 3817.v2.c59 (HIV-1)
[20] = target: HIV-1 Env of pseudovirus 263-8 (HIV-1)
[21] = target: HIV-1 Env of pseudovirus QH0692.42 (HIV-1)
[22] = target: HIV-1 Env of pseudovirus ZM197M.PB7 (HIV-1)
[23] = target: HIV-1 Env of pseudovirus SC05_8C11_2344 (HIV-1)
[24] = target: HIV-1 Env of pseudovirus 1006_11_C3_1601 (HIV-1)
[25] = target: HIV-1 Env of pseudovirus CNE8 (HIV-1)
[26] = target: HIV-1 Env of pseudovirus PVO.4 (HIV-1)
[27] = target: HIV-1 Env of pseudovirus 6811.v7.c18 (HIV-1)
[28] = target: HIV-1 Env of pseudovirus CNE19 (HIV-1)
[29] = target: HIV-1 Env of pseudovirus BJOX009000.02.4 (HIV-1)
[30] = target: HIV-1 Env of pseudovirus C2101.c01 (HIV-1)
[31] = target: HIV-1 Env of pseudovirus ZM233M.PB6 (HIV-1)
[32] = target: HIV-1 Env of pseudovirus 3365.v2.c2 (HIV-1)
[33] = target: HIV-1 Env of pseudovirus TRJO4551.58 (HIV-1)
[34] = target: HIV-1 Env of pseudovirus Ce1086_B2 (HIV-1)
[35] = target: HIV-1 Env of pseudovirus 3301.v1.c24 (HIV-1)
[36] = target: HIV-1 Env of pseudovirus R1166.c01 (HIV-1)
[37] = target: HIV-1 Env of pseudovirus 3103.v3.c10 (HIV-1)

VRC07 (antibody)
IC50, titer in TZM.bl cells [1]: > 50 µg/mL
IC80, titer in TZM.bl cells [1]: > 50 µg/mL
neutralization IC50 [2]: 0.275 µg/mL
neutralization IC80 [2]: 1.29 µg/mL
neutralization IC50 [3]: 0.017 µg/mL
neutralization IC80 [3]: 0.057 µg/mL
IC50, titer in TZM.bl cells [4]: > 50 µg/mL
IC80, titer in TZM.bl cells [4]: > 50 µg/mL
neutralization IC50 [5]: 0.031 µg/mL
neutralization IC80 [5]: 0.086 µg/mL
neutralization IC50 [6]: 0.239 µg/mL
neutralization IC80 [6]: 1.11 µg/mL
IC50, titer in TZM.bl cells [7]: 5.92 µg/mL
IC80, titer in TZM.bl cells [7]: 38 µg/mL
neutralization IC50 [8]: 0.061 µg/mL
neutralization IC80 [8]: 0.209 µg/mL
neutralization IC50 [9]: 0.104 µg/mL
neutralization IC80 [9]: 0.383 µg/mL
neutralization IC50 [10]: 0.278 µg/mL
neutralization IC80 [10]: 0.957 µg/mL
IC50, titer in TZM.bl cells [11]: 0.018 µg/mL
IC80, titer in TZM.bl cells [11]: 0.058 µg/mL
neutralization IC50 [12]: 0.081 µg/mL
neutralization IC80 [12]: 0.236 µg/mL
neutralization IC50 [13]: 0.218 µg/mL
neutralization IC80 [13]: 0.75 µg/mL
neutralization IC50 [14]: 0.025 µg/mL
neutralization IC80 [14]: 0.135 µg/mL
neutralization IC50 [15]: 0.014 µg/mL
neutralization IC80 [15]: 0.045 µg/mL
IC50, titer in TZM.bl cells [16]: > 50 µg/mL
IC80, titer in TZM.bl cells [16]: > 50 µg/mL
IC50, titer in TZM.bl cells [17]: 0.024 µg/mL
IC80, titer in TZM.bl cells [17]: 0.075 µg/mL
neutralization IC50 [18]: 0.052 µg/mL
neutralization IC80 [18]: 0.204 µg/mL
IC50, titer in TZM.bl cells [19]: 1.9 µg/mL
IC80, titer in TZM.bl cells [19]: 19.8 µg/mL
neutralization IC50 [20]: 0.103 µg/mL
neutralization IC80 [20]: 0.282 µg/mL
neutralization IC50 [21]: 0.5 µg/mL
neutralization IC80 [21]: 1.86 µg/mL
neutralization IC50 [22]: 0.307 µg/mL
neutralization IC80 [22]: 1.27 µg/mL
neutralization IC50 [23]: 0.133 µg/mL
neutralization IC80 [23]: 0.401 µg/mL
neutralization IC50 [24]: 0.015 µg/mL
neutralization IC80 [24]: 0.046 µg/mL
IC50, titer in TZM.bl cells [25]: 0.45 µg/mL
IC80, titer in TZM.bl cells [25]: 1.56 µg/mL
neutralization IC50 [26]: 0.063 µg/mL
neutralization IC80 [26]: 0.226 µg/mL
IC50, titer in TZM.bl cells [27]: 0.093 µg/mL
IC80, titer in TZM.bl cells [27]: 0.435 µg/mL
neutralization IC50 [28]: 0.092 µg/mL
neutralization IC80 [28]: 0.232 µg/mL
IC50, titer in TZM.bl cells [29]: 0.806 µg/mL
IC80, titer in TZM.bl cells [29]: 2.9 µg/mL
IC50, titer in TZM.bl cells [30]: 0.238 µg/mL
IC80, titer in TZM.bl cells [30]: 1.4 µg/mL
neutralization IC50 [31]: 0.152 µg/mL
neutralization IC80 [31]: 0.625 µg/mL
neutralization IC50 [32]: 0.038 µg/mL
neutralization IC80 [32]: 0.109 µg/mL
neutralization IC50 [33]: 0.032 µg/mL
neutralization IC80 [33]: 0.125 µg/mL
neutralization IC50 [34]: 0.128 µg/mL
neutralization IC80 [34]: 0.84 µg/mL
IC50, titer in TZM.bl cells [35]: 0.027 µg/mL
IC80, titer in TZM.bl cells [35]: 0.073 µg/mL
IC50, titer in TZM.bl cells [36]: 0.81 µg/mL
IC80, titer in TZM.bl cells [36]: 3.17 µg/mL
IC50, titer in TZM.bl cells [37]: 0.675 µg/mL
IC80, titer in TZM.bl cells [37]: 1.95 µg/mL
